Publication PMC9133466
Blank lines part the entries; values can stand above or below the binder they belong to. Where no end group is shown, it is not given here. [ ]: non-standard residue; d: D form.

How the values were obtained:
[1] = target: amyloid beta (Aβ) of human brain homogenate (human (endogenous in human brain))
[2] = target: amyloid beta (Aβ) of human brain homogenate (human (endogenous in human brain)); remark: listed apart in the source
[3] = target: amyloid beta (Aβ) of APP/PS1 mouse brain homogenate (human)
[4] = target: amyloid beta (Aβ) of human brain homogenate (human (endogenous in human brain)); remark: listed apart in the source

reduction of Aβ oligomer concentration (Aβ with Aβ) by sFIDA; human AD brain homogenate AD2 diluted 1:10, 0.31-20 μM RD2, 24 h [1]: 93%
reduction of Aβ oligomer concentration (Aβ with Aβ) by sFIDA; human AD brain homogenate AD2 diluted 1:20, 0.31-20 μM RD2, 24 h [1]: 95%
reduction of Aβ oligomer concentration (Aβ with Aβ) by sFIDA; human AD brain homogenate AD2 diluted 1:40, 0.31-20 μM RD2, 24 h [1]: 96%
decrease of Aβ oligomer concentration (Aβ with Aβ) by sFIDA; human AD brain homogenate AD2 diluted 1:20, 1.25-20 μM RD2, 0 to 1,365 min [2]: 93%
decrease of Aβ oligomer concentration (Aβ with Aβ) by sFIDA; human AD brain homogenate AD4 diluted 1:20, 1.25-20 μM RD2, 0 to about 23 h [2]: 91%
decrease of Aβ oligomer concentration (Aβ with Aβ) by sFIDA; human AD brain homogenate AD5 diluted 1:20, 1.25-20 μM RD2, 0 to about 23 h [2]: 89%
decrease of Aβ oligomer concentration (Aβ with Aβ) by sFIDA; human AD brain homogenate AD6 diluted 1:20, 1.25-20 μM RD2, 0 to 1,425 min [2]: 90%
reaction rate constant k (1,fast) of Aβ oligomer elimination by RD2 (global double exponential fit, effective RD2 1 and 16 μM); homogenate AD2 (L∗mol^−1∗min^−1) [2]: 2330
reaction rate constant k (1,fast) of Aβ oligomer elimination by RD2 (global double exponential fit, effective RD2 1 and 16 μM); homogenate AD4 (L∗mol^−1∗min^−1) [2]: 2930
reaction rate constant k (1,fast) of Aβ oligomer elimination by RD2 (global double exponential fit, effective RD2 1 and 16 μM); homogenate AD5 (L∗mol^−1∗min^−1) [2]: 2370
reaction rate constant k (1,fast) of Aβ oligomer elimination by RD2 (global double exponential fit, effective RD2 1 and 16 μM); homogenate AD6 (L∗mol^−1∗min^−1) [2]: 1280
reaction rate constant k (1,slow) of Aβ oligomer elimination by RD2 (global double exponential fit, effective RD2 1 and 16 μM); homogenate AD2 (L∗mol^−1∗min^−1) [2]: 76
reaction rate constant k (1,slow) of Aβ oligomer elimination by RD2 (global double exponential fit, effective RD2 1 and 16 μM); homogenate AD4 (L∗mol^−1∗min^−1) [2]: 37
reaction rate constant k (1,slow) of Aβ oligomer elimination by RD2 (global double exponential fit, effective RD2 1 and 16 μM); homogenate AD5 (L∗mol^−1∗min^−1) [2]: 50
reaction rate constant k (1,slow) of Aβ oligomer elimination by RD2 (global double exponential fit, effective RD2 1 and 16 μM); homogenate AD6 (L∗mol^−1∗min^−1) [2]: 48
reduction of Aβ oligomer concentration (Aβ with Aβ) by sFIDA; DGC fraction 10 of APP/PS1 mouse brain homogenate diluted 1:2, 0-50 μM RD2, 0 min to 20 h, 4 °C [3]: 81%
reduction of Aβ oligomer concentration (Aβ with Aβ) by sFIDA; DGC fraction 10 of human AD brain homogenate AD2 diluted 1:10, 5 and 20 μM RD2, 0 to 1,380 min [4]: 92%
reduction of Aβ oligomer concentration (Aβ with Aβ) by sFIDA; DGC fraction 10 of human AD brain homogenate AD6 diluted 1:10, 5 and 20 μM RD2, 0 to 1,380 min [4]: 88%
reduction of Aβ oligomer concentration (Aβ with Aβ) by sFIDA; pooled DGC fractions 4 to 6 of human AD brain homogenate AD2, 20 μM RD2, 1,380 min [4]: 64%
reduction of Aβ oligomer concentration (Aβ with Aβ) by sFIDA; pooled DGC fractions 4 to 6 of human AD brain homogenate AD6, 20 μM RD2, 1,380 min [4]: 62%
B1: RD2 (peptide)
peptide: [dP][dT][dL][dH][dT][dH][dN][dR][dR][dR][dR][dR]-NH2
modifications: N-terminus assumed
SMILES: CC(C)C[C@@H](NC(=O)[C@H](NC(=O)[C@H]1CCCN1)[C@H](C)O)C(=O)N[C@H](Cc1c[nH]cn1)C(=O)N[C@@H](C(=O)N[C@H](Cc1c[nH]cn1)C(=O)N[C@H](CC(N)=O)C(=O)N[C@H](CCCNC(=N)N)C(=O)N[C@H](CCCNC(=N)N)C(=O)N[C@H](CCCNC(=N)N)C(=O)N[C@H](CCCNC(=N)N)C(=O)N[C@H](CCCNC(=N)N)C(N)=O)[C@H](C)O

reduction of Aβ oligomer signal by sFIDA; human AD brain homogenate AD2 diluted 1:40 (similar at 1:10 and 1:20), 0.31-20 μM D1, 24 h [1]: 27%
B2: D1 (peptide)
peptide: [dQ][dS][dH][dY][dR][dH][dI][dS][dP][dA][dQ][dV]-NH2
modifications: N-terminus assumed
SMILES: CC[C@@H](C)[C@@H](NC(=O)[C@@H](Cc1c[nH]cn1)NC(=O)[C@@H](CCCNC(=N)N)NC(=O)[C@@H](Cc1ccc(O)cc1)NC(=O)[C@@H](Cc1c[nH]cn1)NC(=O)[C@@H](CO)NC(=O)[C@H](N)CCC(N)=O)C(=O)N[C@H](CO)C(=O)N1CCC[C@@H]1C(=O)N[C@H](C)C(=O)N[C@H](CCC(N)=O)C(=O)N[C@@H](C(N)=O)C(C)C
